Km, Vmax and Vmax/Km data for three proteins are collected here from paper PMC12316734, “Lipase Activation by Poly(Methyl Methacrylate) in Dispersed Solution: Mechanistic Insights by Fluorescence Spectroscopy” (Applied Biochemistry and Biotechnology, 2025).

What all share (assay): fluorogenic hydrolysis assay, Michaelis-Menten fit
Holding throughout (conditions): pH 7, 20 °C, no PMMA, 2% DMSO, 500 nM enzyme

Substrate in data set [1]: CCCC(=O)Oc1ccc2c(C)cc(=O)oc2c1
It is filed as biochemical, Thermomyces lanuginosus. From the text: fluorogenic hydrolysis assay, Michaelis-Menten fit on Thermomyces lanuginosus lipase (TLL)

Substrate in data set [2]: CCCC(=O)Oc1ccc2c(C)cc(=O)oc2c1
It is filed as biochemical, Bacillus subtilis. The text has this: fluorogenic hydrolysis assay, Michaelis-Menten fit on Bacillus subtilis lipase A (BSLA WT)

Substrate in data set [3]: CCCC(=O)Oc1ccc2c(C)cc(=O)oc2c1
The class given is biochemical, Moesziomyces antarcticus. The text has this:
fluorogenic hydrolysis assay, Michaelis-Menten fit on Candida antarctica lipase B (CalB)

B1: Thermomyces lanuginosus lipase (TLL) (Thermomyces lanuginosus) (protein)
chain: EVSQDLFNQFNLFAQYSAAAYCGKNNDAPAGTNITCTGNACPEVEKADATFLYSFEDSGVGDVTGFLALDNTNKLIVLSFRGSRSIENWIGNLNFDLKEINDICSGCRGHDGFTSSWRSVADTLRQKVEDAVREHPDYRVVFTGHSLGGALATVAGADLRGNGYDIDVFSYGAPRVGNRAFAEFLTVQTGGTLYRITHTNDIVPRLPPREFGYSHSSPEYWIKSGTLVPVTRNDIVKIEGIDATGGNNQPNIPDIPAHLWYFGLIGTCL
notes: commercial lipase (gift of ASA Spezialenzyme), desalted; predominantly dimer in FCS
For B1, in data set [1], the Km (usually the substrate concentration at which the rate is half of its maximum) was 20.8 ± 1.67 µM, the Vmax (commonly the rate approached at saturating substrate) is 4.16 µM/min and the Vmax/Km was determined as 0.2 min⁻¹.

B2: Bacillus subtilis lipase A (BSLA WT) (Bacillus subtilis subsp. subtilis str. 168) (protein)
chain: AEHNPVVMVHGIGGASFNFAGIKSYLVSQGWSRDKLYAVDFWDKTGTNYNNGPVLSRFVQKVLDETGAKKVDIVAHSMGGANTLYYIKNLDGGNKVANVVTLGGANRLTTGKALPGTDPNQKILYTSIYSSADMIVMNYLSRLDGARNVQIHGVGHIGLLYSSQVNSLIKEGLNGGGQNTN
As to B2, in data set [2], the Michaelis constant (Km) came out at 39.2 ± 3.61 µM, the Vmax was found to be 97.7 µM/min and the Vmax/Km is 2.49 min⁻¹.

B3: Candida antarctica lipase B (CalB) (Moesziomyces antarcticus) (protein)
chain: LPSGSDPAFSQPKSVLDAGLTCQGASPSSVSKPILLVPGTGTTGPQSFDSNWIPLSTQLGYTPCWISPPPFMLNDTQVNTEYMVNAITALYAGSGNNKLPVLTWSQGGLVAQWGLTFFPSIRSKVDRLMAFAPDYKGTVLAGPLDALAVSAPSVWQQTTGSALTTALRNAGGLTQIVPTTNLYSATDEIVQPQVSNSPLDSSYLFNGKNVQAQAVCGPLFVIDHAGSLTSQFSYVVGRSALRSTTGQARSADYGITDCNPLPANDLTPEQKVAAAALLAPAAAAIVAGPKQNCEPDLMPYARPFAVGKRTCSGIVTP
notes: commercial lipase B (Strem Chemicals), free enzyme in solution
B3: in data set [3], the Km is 26.6 ± 1.77 µM, the maximal velocity (Vmax) stood at 5.43 µM/min and the Vmax/Km is 0.2 min⁻¹.
